Test results as given in patent US20070054259, “Modulation of hnRNP H and treatment of DM1” (City of Hope, published 2007).

Legend:
Settings in all cases: tags: bacterially expressed, purified as Markovtsov et al. 2000
hnRNP H (recombinant) [1] = biological target: T1, hnRNP H (recombinant) (UniProt P31943 P31943:1-449); test: EMSA; much more shifted than CUG46; 50 kDa UV crosslink but no 100 kDa dimer without extract
T1 sequence: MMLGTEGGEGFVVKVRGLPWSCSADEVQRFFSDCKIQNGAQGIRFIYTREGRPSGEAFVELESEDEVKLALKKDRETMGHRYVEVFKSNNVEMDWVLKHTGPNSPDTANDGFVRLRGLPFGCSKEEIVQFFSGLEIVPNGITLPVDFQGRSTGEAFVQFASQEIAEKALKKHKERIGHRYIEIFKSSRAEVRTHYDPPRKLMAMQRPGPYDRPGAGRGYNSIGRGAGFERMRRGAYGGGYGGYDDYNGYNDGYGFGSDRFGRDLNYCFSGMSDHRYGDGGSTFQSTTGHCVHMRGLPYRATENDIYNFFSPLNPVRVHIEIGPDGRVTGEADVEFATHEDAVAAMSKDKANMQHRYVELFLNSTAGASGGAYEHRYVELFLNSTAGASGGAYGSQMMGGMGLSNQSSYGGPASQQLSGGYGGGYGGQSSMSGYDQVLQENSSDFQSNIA
Excerpt: (§1) Based on previous data FIGS. 1B, 1C, 2A and 2B) we speculated that the binding of hnRNP H to CUG repeats is proportional to the length of the repeats. The recombinant form of hnRNP H was indubated with different length CUG repeats and complexes resolved in a native gel (FIG. 4A). No binding to the CUG 5 RNA was observed (Lanes 1 and 3). When the CUG 46 RNA was used in this assay, only a small fraction of the protein was gel shifted (marked as * in lane 6). In contrast, the CUG85 RNA was much more gel shifted (marked as * in lane 9). […] Combined all hnRNP H binds to CUG repeats in a proportional way depends on the length of the (CUG) repeats.

hnRNP H (recombinant) [2] = biological target: T1, hnRNP H (recombinant); test: EMSA; 10 ng protein; binding abolished by branch site mutation
Excerpt: as §1
The different RNAs used in these assays have CUG repeats as well as a splicing acceptor site derived from a downstream of the DMPK gene (Gourdon, 1997). To understand the role of this 3′ branch site in the binding reaction, a mutant CUG85 clone containing a mutant form of the branch site was created (marked as CUG85′, FIG. 1A).

hnRNP H (recombinant) [3] = biological target: T1, hnRNP H (recombinant); test: EMSA; native gel, lane 3
Excerpt: as §1

B1: (CUG)85 DMPK RNA (ssRNA)
RNA: CUGCUGCUGCUGCUGCUGCUGCUGCUGCUGCUGCUGCUGCUGCUGCUGCUGCUGCUGCUGCUGCUGCUGCUGCUGCUGCUGCUGCUGCUGCUGCUGCUGCUGCUGCUGCUGCUGCUGCUGCUGCUGCUGCUGCUGCUGCUGCUGCUGCUGCUGCUGCUGCUGCUGCUGCUGCUGCUGCUGCUGCUGCUGCUGCUGCUGCUGCUGCUGCUGCUGCUGCUGCUGCUGCUGCUGCUGCUGCUGCUGCUGCUGCUGCUGGGGGGAUCACAGACCA
binding result (hnRNP H (recombinant) [1]): binds

B2: (CUG)85' DMPK RNA, mutated 3' branch site (ssRNA)
RNA: CUGCUGCUGCUGCUGCUGCUGCUGCUGCUGCUGCUGCUGCUGCUGCUGCUGCUGCUGCUGCUGCUGCUGCUGCUGCUGCUGCUGCUGCUGCUGCUGCUGCUGCUGCUGCUGCUGCUGCUGCUGCUGCUGCUGCUGCUGCUGCUGCUGCUGCUGCUGCUGCUGCUGCUGCUGCUGCUGCUGCUGCUGCUGCUGCUGCUGCUGCUGCUGCUGCUGCUGCUGCUGCUGCUGCUGCUGCUGCUGCUGCUGCUGCUGCUGGGGGGAUCAGUGACCA
binding result (hnRNP H (recombinant) [2]): no binding

CUGCUGCUGCUGCUGGGGGGAUCACAGACCA (ssRNA) [(CUG)5 DMPK RNA]
binding result (hnRNP H (recombinant) [3]): no binding
